Laboratory results from PMC1180670.

How the values were obtained:
[1] = system: S. pombe Translin (Schizosaccharomyces pombe); assay: EMSA
[2] = target: recombinant S.pombe Translin (S. pombe); assay: glycerol gradient centrifugation
human Translin = human Translin (Homo sapiens, UniProt Q15631 1-228); assay: EMSA
Chain of human Translin (Q15631 whole entry): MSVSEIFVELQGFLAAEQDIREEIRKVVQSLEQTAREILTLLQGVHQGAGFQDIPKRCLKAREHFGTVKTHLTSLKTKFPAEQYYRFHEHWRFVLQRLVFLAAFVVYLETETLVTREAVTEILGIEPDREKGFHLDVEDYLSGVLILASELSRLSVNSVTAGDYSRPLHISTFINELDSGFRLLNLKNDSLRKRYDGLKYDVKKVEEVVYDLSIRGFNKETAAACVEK

Molecule | Kd [1] [nM] | other results
GTGTGTGTGTGTGTGTGTGTGTGTGTGTGT [d(GT)15] | 18 | 
GUGUGUGUGUGUGUGUGUGUGUGUGUGUGU [(GU)15] | 3 | 
recombinant S.pombe Translin (natural protein) |  | stoichiometry N [2]: 8
GTGTGTGTGTGTGTGTGTGTGTGTGTGTGT (ssDNA) [d(GT)15] |  | binding signal (human Translin): ~2 Kd relative to (GU)15
